{
  "source": "patent US20230322857A1",
  "about": "“RECOMBINANTLY ENGINEERED POLYPEPTIDES CAPABLE OF RECYCLING NONCANONICAL COFACTORS” (The Regents of the University of California, priority 2022, published 2023)",
  "molecules": {"B1": {"name": "LY-13: phosphite dehydrogenase variant with A155N, E175A, A176F (SEQ ID NO: 6) (protein)", "chain": "MLPKLVITHRVHEEILQLLAPHCELITNQTDSTLTREEILRRCRDAQAMMAFMPDRVDADFLQACPELRVIGCALKGFDNFDVDACTARGVWLTFVPDLLTVPTAELAIGLAVGLGRHLRAADAFVRSGKFRGWQPRFYGTGLDNATVGFLGMGNIGLAMADRLQGWGATLQYHAFKALDTQTEQRLGLRQVACSELFASSDFILLALPLNADTLHLVNAELLALVRPGALLVNPCRGSVVDEAAVLAALERGQLGGYAADVFEMEDWARADRPQQIDPALLAHPNTLFTPHIGSAVRAVRLEIERCAAQNILQALAGERPINAVNRLPKANPAAD"}},
  "format_in_all_cases": "biochemical",
  "key": {"[1]": {"assay": "Comparison of PTDH and GDH Triple redox cofactor cycling systems", "procedure": "Comparison of PTDH and GDH Triple Redox Cofactor Cycling Systems. In cycling reactions focused on higher conversion and productivity, see FIG. 10C, the concentration of cofactor cycling protein (TS-PTDH or GDH Triple) was increased relative to the TTN determination experiments. Reactions were performed at 30° C. without shaking in 1 mL volumes in 2 mL glass vials secured with a PTFE-lined screw cap. Sampling and GC-FID analysis were performed as described in the TTN method section.\nReactions utilizing TS-PTDH LY-13 contained 100 mM MOPS at pH 7.5, 100 mM sodium phosphite, 33 mM KIP, and 18.8 μM XenA. Reactions utilizing GDH Triple contained 200 mM potassium phosphate at pH 7.5, 300 mM D-glucose, 1 M NaCl, 33 mM KIP, and 18.8 μM XenA. The NMN^+ concentration in each reaction was varied at 0, 0.05, 0.1, 0.5, or 5 mM. The reactions were initiated by spiking TS-PTDH LY-13 or GDH Triple to a final concentration of 10 μM."}, "[2]": {"assay": "Steady-state kinetics of TS-PTDH variants with NMN^+", "procedure": "(§1) Purification and Characterization of TS-PTDH Variants. The E. coli BL21(DE3) strains harboring pQElac plasmids encoding the TS-PTDH or TS-PTDH variants were grown in 2×YT media with kanamycin and ampicillin at 37° C. The IPTG-inducible expression, Ni-affinity purification, and protein concentration determination was conducted as described above.\n(§2) The steady-state kinetic parameters toward the coenzymes were measured by spiking purified protein into a 100 μL reaction mixture containing 100 mM MOPS, pH 7.25, 10 mM sodium Pt, and varied cofactor concentrations from 0.02 mM to 5 mM at 25° C. The kinetic parameters were measured by monitoring the […] of reduced coenzyme at 340 nm. Data were fitted to the Michaelis-Menten equation to generate estimates of KM and kcat values."}, "[3]": {"assay": "Steady-state kinetics of TS-PTDH variants with NADP^+", "conditions": "100 mM MOPS, pH 7.25, 10 mM sodium phosphite, varied cofactor concentrations; n = 3", "procedure": "as §1, §2"}, "[4]": {"assay": "BNA(H)-mediated PTDH biotransformation with TsOYE", "procedure": "BNA(H)-Mediated PTDH Biotransformation. Reactions with BNA^+, see FIG. 10D, contained 100 mM MOPS-NaOH at pH 7.6, 10 mM KIP, 100 mM sodium phosphite, and 2% v/v DMSO. BNA^+Cl^−, prepared by refluxing equimolar amounts of nicotinamide and benzyl chloride in acetonitrile overnight, followed by precipitation with diethyl ether on ice was supplied to the reactions at final concentrations of 0, 5, 10, or 20 mM. Reactions were initiated by spiking TsOYE and the appropriate TS-PTDH variant to a final concentration of 10 μM, each. Reaction mixtures were incubated at 30° C. on a Thermomixer C (Eppendorf) with shaking at 900 rpm for 24 h, extracted with 500 μL ethyl acetate containing 5 mM n-dodecane, and analyzed by GC-FID. The cycling system with no BNA was used to determine the background activity of the cycling systems. This value was subtracted from the final levodione concentrations in the 5-, 10-, and 20-mM samples to determine the BNA(H)^− specific levodione production. Concentrations of levodione product were determined using a calibration line (0-10 mM, 6 levels, using n-dodecane as internal standard). The y-intercept of the calibration line was forced through 0.\nFor BNA(H)-mediated reactions, gas chromatography analyses were performed on a GC-2010 (Shimadzu, Japan) equipped with an AOC-20i auto injector and a flame ionization detector (FID), using a CP-Sil 5 column (25 m×0.25 mm×[…]). 1 μL of sample was injected with a split ratio of 100:1 and injector at 340° C. The FID was maintained at 360° C. Nitrogen was used as the carrier gas, with a linear velocity of 30 cm/s. The oven was held at 135° C. for 1 min, ramped at 15° C./min to 215° C., then 30° C./min to 345° C., and held at 345° C. for 1 min.\nExpression and Purification of Proteins for BNA(H)-Mediated Biotransformation Reactions. E. coli BL21(DE3) strains were transformed with the plasmids containing the TS-PTDH variants and grown on LB-agar plates containing ampicillin at 37° C. overnight. An overnight culture, 15 mL LB supplemented with ampicillin, was inoculated with a single colony, and grown at 37° C., 170 rpm overnight. 2 L baffled shake-flasks with 250 mL of 2×YT media containing 200 μg/mL ampicillin, were inoculated with the overnight culture, grown at 37° C., 170 rpm until OD600 of ˜1.0, induced with IPTG (0.5 mM), and grown at 30° C. and 170 rpm for 24 h. Cells were harvested by centrifugation at 18,000×g, 4° C., 10 min and stored at −20° C. until purification.\nThe pellet was resuspended in four volumes loading buffer (50 mM sodium phosphate, 300 mM sodium chloride, 10 mM imidazole, pH 7.7), and lysed on ice by sonication (Branson sonifier 250; 15 min total, 40% duty cycle, output control 3.5, 2 mm tip). The lysate was clarified (21,000×g, 4° C., 30 min followed by 0.2 μm filtration), and loaded (1 mL/min) onto a Nickel-HisTrap FF crude (1 mL) column, washed with loading buffer (12 column volumes, CV), followed by a step with 10% elution buffer (loading buffer containing 250 mM imidazole; 12 CV). The protein was then eluted with 100% elution buffer and collected in fractions of 0.5 mL. Fractions containing protein were combined and dialyzed against ice-cold dialysis buffer (50 mM sodium phosphate, pH 7.7, 800 mL); the buffer was renewed after the first 2 h of dialysis. Following the dialysis, the protein was mixed with glycerol (20% v/v final concentration). Enzyme concentrations were estimated by the absorbance at 280 nm (non-denatured protein), using predicted extinction coefficients (wild type and LY-13: 26470, LY-7: […]; web.expasy.org/protparam/). The protein was aliquoted, flash frozen in liquid nitrogen, and stored at −80° C. until use. […]"}, "[5]": {"assay": "Steady-state kinetics of TS-PTDH variants with NAD^+", "conditions": "100 mM MOPS, pH 7.25, 10 mM sodium phosphite, varied cofactor concentrations; n = 3", "procedure": "as §1, §2"}, "[6]": {"conditions": "100 mM MOPS, pH 7.25, 10 mM sodium phosphite, varied cofactor concentrations, n = 3"}},
  "note": "Entries after “also recorded” stand apart in the source; their conditions may differ.",
  "data": [
    {"molecule": "B1", "values": [
      {"measurement": "time to complete conversion of the 33 mM KIP pool", "setting": "[1]; 5 mM NMN^+ supplied, 10 μM cycling enzyme, 18.8 μM XenA", "result": 12, "unit": "h"},
      {"measurement": "biotransformation performance compared to GDH Triple at low NMN^+", "setting": "[1]; NMN^+ supplementation 1 mM and lower", "result": "higher biotransformation rates and final titers; also recorded: more efficient utilization of the NMN^+ pool; also recorded: outperform GDH Triple"},
      {"measurement": "Km", "setting": "[2]; [6]", "result": 620, "unit": "µM"},
      {"measurement": "NMN^+ kcat", "setting": "[2]; [6]", "result": "0.27 ± 0.01", "unit": "s⁻¹"},
      {"measurement": "increase in catalytic efficiency for NMN^+ compared to TS-PTDH (wild type enzyme)", "setting": "[2]; vs TS-PTDH", "result": "~110", "unit": "fold"},
      {"measurement": "increased catalytic efficiency (kcat/Km) for NMN^+ compared to TS-PTDH A155N", "setting": "[2]; vs parent enzyme TS-PTDH A155N", "result": "~44", "unit": "fold"},
      {"measurement": "Km", "setting": "[3]", "result": "50 ± 10", "unit": "µM"},
      {"measurement": "NADP^+ kcat", "setting": "[3]", "result": "0.96 ± 0.02", "unit": "s⁻¹"},
      {"measurement": "activity / cycling with BNA^+ compared to wild type", "setting": "[4]", "result": "enhanced activity for BNA^+ reduction"},
      {"measurement": "response of biotransformation efficiency to BNA^+ concentration", "setting": "[4]; 0, 5, 10, or 20 mM BNA^+", "result": "cofactor dose-dependent response"},
      {"measurement": "utilization of the BNA^+ pool relative to the wild type protein", "setting": "[4]; 20 mM BNA^+ supplementation, TsOYE, 24 h", "result": "improved utilization of the BNA^+ pool"},
      {"measurement": "Km", "setting": "[5]", "result": "180 ± 30", "unit": "µM"},
      {"measurement": "NAD^+ kcat", "setting": "[5]", "result": "2.06 ± 0.11", "unit": "s⁻¹"}
    ]}
  ]
}
